Laboratory results from patent publication US20020151590, “Compositions and methods for regulating circadian rhythyms” (published 2002).

Legend:
[1] = biological target: MOP4 (NPAS2):BMAL1 heterodimer (Homo sapiens, UniProt Q99743;O00327 Q99743:1-824,O00327:1-626); experiment: EMSA; 150 mM KCl, 20 mM Tris-HCl pH 7.6, 5 mM MgCl2, 200 ng poly(dI-dC), 4 C; RXRa/RARa with 9cisRA/tRA tested as inhibitors; gel result not shown in text; conditions: tags: reticulocyte lysate (TNT), CMX plasmids; label: 32P
MOP4 (NPAS2):BMAL1 heterodimer, sequence (Q99743 whole entry, chain 1 of 2): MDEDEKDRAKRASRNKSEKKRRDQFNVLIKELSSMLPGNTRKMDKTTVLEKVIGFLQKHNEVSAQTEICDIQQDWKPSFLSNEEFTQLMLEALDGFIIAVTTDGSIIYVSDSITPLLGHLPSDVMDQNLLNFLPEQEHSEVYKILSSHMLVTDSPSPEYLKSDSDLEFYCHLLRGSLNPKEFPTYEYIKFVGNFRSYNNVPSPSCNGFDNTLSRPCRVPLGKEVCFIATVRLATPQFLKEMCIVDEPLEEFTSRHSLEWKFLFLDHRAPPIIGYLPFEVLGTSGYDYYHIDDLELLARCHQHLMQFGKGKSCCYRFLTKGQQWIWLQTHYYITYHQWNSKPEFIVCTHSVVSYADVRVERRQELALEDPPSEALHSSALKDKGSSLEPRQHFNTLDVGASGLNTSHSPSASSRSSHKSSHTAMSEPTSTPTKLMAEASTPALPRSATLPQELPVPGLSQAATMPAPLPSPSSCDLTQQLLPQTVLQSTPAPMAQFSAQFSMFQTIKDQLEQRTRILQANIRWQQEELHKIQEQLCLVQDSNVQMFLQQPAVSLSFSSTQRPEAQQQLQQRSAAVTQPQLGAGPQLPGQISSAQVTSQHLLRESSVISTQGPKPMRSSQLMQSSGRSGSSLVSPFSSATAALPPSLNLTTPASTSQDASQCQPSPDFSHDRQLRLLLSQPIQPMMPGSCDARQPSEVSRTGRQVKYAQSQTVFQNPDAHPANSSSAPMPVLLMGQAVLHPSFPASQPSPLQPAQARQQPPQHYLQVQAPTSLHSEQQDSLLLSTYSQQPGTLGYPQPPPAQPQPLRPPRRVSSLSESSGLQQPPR
MOP4 (NPAS2):BMAL1 heterodimer, sequence (O00327 whole entry, chain 2 of 2): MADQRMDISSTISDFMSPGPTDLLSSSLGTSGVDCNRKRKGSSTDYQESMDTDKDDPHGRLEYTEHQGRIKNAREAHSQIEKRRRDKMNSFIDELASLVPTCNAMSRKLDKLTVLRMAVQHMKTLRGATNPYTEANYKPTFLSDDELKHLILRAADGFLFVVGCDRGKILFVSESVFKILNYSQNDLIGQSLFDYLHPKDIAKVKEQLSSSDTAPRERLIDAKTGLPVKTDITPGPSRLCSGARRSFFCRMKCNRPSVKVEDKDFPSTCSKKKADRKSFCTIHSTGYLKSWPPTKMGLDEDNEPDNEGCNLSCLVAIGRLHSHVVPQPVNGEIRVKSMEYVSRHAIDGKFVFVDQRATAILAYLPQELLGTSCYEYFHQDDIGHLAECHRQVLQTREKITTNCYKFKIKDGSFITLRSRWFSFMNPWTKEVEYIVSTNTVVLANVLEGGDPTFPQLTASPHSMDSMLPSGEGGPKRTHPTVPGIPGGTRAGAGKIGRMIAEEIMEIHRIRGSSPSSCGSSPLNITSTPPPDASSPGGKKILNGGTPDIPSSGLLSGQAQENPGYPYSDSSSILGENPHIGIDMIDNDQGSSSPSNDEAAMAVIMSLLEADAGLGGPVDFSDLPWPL
From the text: (§1) A double-stranded [γ³²P]dATP-labeled consensus oligonucleotide, […] […] The samples were loaded directly onto 4% polyacrylamide-TBE gels to separate MOP4/CLOCK:BMAL1 bound DNA from free DNA. The gels were dried and analyzed on a PhosphorImager.

CLOCK:BMAL1 heterodimer = CLOCK:BMAL1 heterodimer (Homo sapiens, UniProt O15516;O00327 O15516:1-846,O00327:1-626); experiment: as above; conditions: tags: reticulocyte lysate (TNT), CMX plasmids; label: 32P
CLOCK:BMAL1 heterodimer, sequence (O15516 whole entry, chain 1 of 2): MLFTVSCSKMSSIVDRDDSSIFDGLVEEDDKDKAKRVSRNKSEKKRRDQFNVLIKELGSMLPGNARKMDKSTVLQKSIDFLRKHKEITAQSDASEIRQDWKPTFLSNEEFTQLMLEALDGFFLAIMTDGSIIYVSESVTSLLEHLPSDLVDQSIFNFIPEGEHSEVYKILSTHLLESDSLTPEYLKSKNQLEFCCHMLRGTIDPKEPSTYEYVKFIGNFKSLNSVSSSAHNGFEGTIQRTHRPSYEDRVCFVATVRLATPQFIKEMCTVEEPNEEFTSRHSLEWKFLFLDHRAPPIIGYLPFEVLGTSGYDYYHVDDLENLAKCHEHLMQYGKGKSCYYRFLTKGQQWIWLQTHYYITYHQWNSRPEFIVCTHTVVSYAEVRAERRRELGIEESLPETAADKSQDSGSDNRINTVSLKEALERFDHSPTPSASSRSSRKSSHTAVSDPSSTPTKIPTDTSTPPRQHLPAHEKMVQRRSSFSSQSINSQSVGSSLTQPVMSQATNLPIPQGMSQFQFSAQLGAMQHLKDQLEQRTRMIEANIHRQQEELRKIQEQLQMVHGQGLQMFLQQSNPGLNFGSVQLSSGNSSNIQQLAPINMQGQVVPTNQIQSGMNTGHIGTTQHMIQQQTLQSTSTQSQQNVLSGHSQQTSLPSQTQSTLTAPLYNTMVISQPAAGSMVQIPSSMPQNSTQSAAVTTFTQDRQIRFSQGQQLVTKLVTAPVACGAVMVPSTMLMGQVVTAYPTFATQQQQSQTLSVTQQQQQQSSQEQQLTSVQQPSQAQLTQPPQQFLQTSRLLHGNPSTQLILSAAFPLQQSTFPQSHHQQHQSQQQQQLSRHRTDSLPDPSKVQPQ
CLOCK:BMAL1 heterodimer, sequence (O00327 whole entry, chain 2 of 2): as the sequence (O00327 whole entry, chain 2 of 2) above
From the text: as §1

B1: E-box consensus oligonucleotide (dsDNA)
DNA 1: GGGACACGTGACCC
DNA 2: GGGTCACGTGTCCC
B1: binds [1]; binds (CLOCK:BMAL1 heterodimer).
